T1: cynomolgus monkey FcγRIIa2 extracellular domain, C-terminal His-tag (cynomolgus monkey)
T1 construct: also called cyno FcγRIIa2; cynoFcgRIIa2; not shown: His-tag added to C-terminus
T1 chain: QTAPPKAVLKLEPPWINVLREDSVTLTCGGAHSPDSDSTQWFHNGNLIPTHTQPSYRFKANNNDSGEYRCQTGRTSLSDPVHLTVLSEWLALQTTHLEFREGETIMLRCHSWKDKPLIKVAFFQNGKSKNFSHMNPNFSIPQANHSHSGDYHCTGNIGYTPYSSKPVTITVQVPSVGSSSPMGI

T2: cynomolgus monkey FcγRIIa3 extracellular domain, C-terminal His-tag (cynomolgus monkey)
T2 construct: also called cyno FcγRIIa3; cynoFcgRIIa3; not shown: His-tag added to C-terminus
T2 chain: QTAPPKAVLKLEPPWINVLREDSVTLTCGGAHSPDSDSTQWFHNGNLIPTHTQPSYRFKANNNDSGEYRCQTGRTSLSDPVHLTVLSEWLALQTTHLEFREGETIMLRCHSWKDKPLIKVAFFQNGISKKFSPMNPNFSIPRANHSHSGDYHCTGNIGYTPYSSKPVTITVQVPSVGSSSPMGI

T3: cynomolgus monkey FcγRIIb extracellular domain, C-terminal His-tag (cynomolgus monkey)
T3 construct: also called cyno FcγRIIb; cynoFcγRIIb; not shown: His-tag added to C-terminus
T3 chain: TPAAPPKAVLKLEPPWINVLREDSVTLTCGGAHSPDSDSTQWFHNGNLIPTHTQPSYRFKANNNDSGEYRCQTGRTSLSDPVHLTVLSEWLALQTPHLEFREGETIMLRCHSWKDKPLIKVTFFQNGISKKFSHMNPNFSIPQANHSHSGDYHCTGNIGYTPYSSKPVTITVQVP


Key:
Assay in all cases: SPR (BIACORE), antibody captured, FcγR analyte
[1] = molecular target: T1, cynomolgus monkey FcγRIIa2 …
Description: (§1) The kinetic analysis of interactions between these antibodies and FcγR was carried out using BIACORE® T200 or BIACORE® 4000 (GE Healthcare). HBS-EP+ (GE Healthcare) was used as the running buffer, and the measurement temperature was set to 25° C. A chip produced by immobilizing Protein A. Protein A/G or mouse anti-human IgG kappa light chain (BD Biosciences) onto a Series S Sensor Chip CM4 or CM5 (GE Healthcare) by the amine-coupling method was used. […] After the measurement, the antibody captured on the chip was washed off by allowing reaction with 10 mM glycine-HCl, pH1.5 and 25 mM NaOH so that the chip was regenerated and used repeatedly. The sensorgrams obtained as measurement results were analyzed by the 1:1 Langmuir binding model using the BIACORE® Evaluation Software to calculate the binding rate constant ka (L/mol/s) and dissociation rate constant kd (l/s), and the dissociation constant KD (mol/L) was calculated from these values. […] Regarding such interactions, KD values were calculated using the following 1:1 binding model described in BIACORE® T100 Software Handbook BR1006-48 Edition AE.
(§2) The behavior of interacting molecules according to the 1:1 binding model on BIACORE® can be described by Equation 1: Req=C·R max/(KD+C)+RI, wherein, Req is a plot of steady-state binding levels to analyte concentration. C is concentration, RI is bulk refractive index contribution in the sample, and Rmax is analyte binding capacity of the surface. When this equation is rearranged, KD can be expressed as Equation 2: KD=C·Rmax/(Req−RI)−C. KD can be calculated by substituting the values of Rmax, RI, and C into Equation 1 or Equation 2. From the current measurement conditions, RI=0, C=2 μmol/L can be used.

[2] = molecular target: T2, cynomolgus monkey FcγRIIa3 …
Description: as §1, §2

[3] = molecular target: T3, cynomolgus monkey FcγRIIb extracellular …
Description: as §1, §2

[4] = molecular target: T4, human FcγRIIIaV extracellular domain, C-terminal His-tag (human, UniProt P08637 17-208)
T4 construct: also called FcgRIIIaV; not shown: His-tag added to C-terminus
T4 sequence (P08637 17-208 F176V): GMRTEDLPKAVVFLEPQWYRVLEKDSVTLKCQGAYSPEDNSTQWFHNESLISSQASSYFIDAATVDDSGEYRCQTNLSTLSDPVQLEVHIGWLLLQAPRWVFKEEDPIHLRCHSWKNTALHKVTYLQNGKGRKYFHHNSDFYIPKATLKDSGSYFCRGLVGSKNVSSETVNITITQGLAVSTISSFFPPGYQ
Description: as §1, §2

Binder	Kd [1] [nM]	Kd [2] [nM]	Kd [3] [nM]	Kd [4] [nM]
M103205H795-MY335 / M103202L889-SK1 (antibody, human IgG1, kappa, CH with G236T/H268D/Q311R/A330K/D413K against SG1 (EU numbering); also called MS1032LO06-MY335) heavy: QVTLKESGPVLVKPTETLTLTCTVSGIDLSHDDISWVRQAPGKGLEWVGIISYAGSTYYASWAKGRLTISKDTSKNQVVLTMTNMDPVDTATYYCARGVPAYSHGGDLWGQGTLVTVSSASTKGPSVFPLAPSSKSTSGGTAALGCLVKDYFPEPVTVSWNSGALTSGVHTFPAVLQSSGLYSLSSVVTVPSSSLGTQTYICNVNHKPSNTKVDKKVEPKSCDKTHTCPPCPAPELLTGPSVFLFPPKPKDTLMISRTPEVTCVVVDVSDEDPEVKFNWYVDGVEVHNAKTKPREEQYNSTYRVVSVLTVLHRDWLNGKEYKCKVSNKALPKPIEKTISKAKGQPREPQVYTLPPSREEMTKNQVSLTCLVKGFYPSDIAVEWESNGQPENNYKTTPPVLDSDGSFFLYSKLTVKKSRWQQGNVFSCSVMHEALHNHYTQKSLSLSP light: DIVMTQSPATLSLSPGERATLSCTSSQSVYHANWLSWFQQKPGQPPKLLIYWASTLAYGVPSRFSGSGSGTDFTLTISSLQPEDAATYYCAGGYGGGRYAFGQGTKVEIKRTVAAPSVFIFPPSDEQLKSGTASVVCLLNNFYPREAKVQWKVDNALQSGNSQESVTEQDSKDSTYSLSSTLTLSKADYEKHKVYACEVTHQGLSSPVTKSFNRGEC	1700	2700	650	5000
M103205H795-MY201 / M103202L889-SK1 (antibody, human IgG1, kappa, CH with G236N/H268D/A330K against SG1 (EU numbering); also called MS1032LO06-MY201) heavy: QVTLKESGPVLVKPTETLTLTCTVSGIDLSHDDISWVRQAPGKGLEWVGIISYAGSTYYASWAKGRLTISKDTSKNQVVLTMTNMDPVDTATYYCARGVPAYSHGGDLWGQGTLVTVSSASTKGPSVFPLAPSSKSTSGGTAALGCLVKDYFPEPVTVSWNSGALTSGVHTFPAVLQSSGLYSLSSVVTVPSSSLGTQTYICNVNHKPSNTKVDKKVEPKSCDKTHTCPPCPAPELLNGPSVFLFPPKPKDTLMISRTPEVTCVVVDVSDEDPEVKFNWYVDGVEVHNAKTKPREEQYNSTYRVVSVLTVLHQDWLNGKEYKCKVSNKALPKPIEKTISKAKGQPREPQVYTLPPSREEMTKNQVSLTCLVKGFYPSDIAVEWESNGQPENNYKTTPPVLDSDGSFFLYSKLTVDKSRWQQGNVFSCSVMHEALHNHYTQKSLSLSP light: DIVMTQSPATLSLSPGERATLSCTSSQSVYHANWLSWFQQKPGQPPKLLIYWASTLAYGVPSRFSGSGSGTDFTLTISSLQPEDAATYYCAGGYGGGRYAFGQGTKVEIKRTVAAPSVFIFPPSDEQLKSGTASVVCLLNNFYPREAKVQWKVDNALQSGNSQESVTEQDSKDSTYSLSSTLTLSKADYEKHKVYACEVTHQGLSSPVTKSFNRGEC	1400	3900	430	24000
M103205H795-MY205 / M103202L889-SK1 (antibody, human IgG1, kappa, CH with G236N/H268D/Q295L/A330K against SG1 (EU numbering); also called MS1032LO06-MY205) heavy: QVTLKESGPVLVKPTETLTLTCTVSGIDLSHDDISWVRQAPGKGLEWVGIISYAGSTYYASWAKGRLTISKDTSKNQVVLTMTNMDPVDTATYYCARGVPAYSHGGDLWGQGTLVTVSSASTKGPSVFPLAPSSKSTSGGTAALGCLVKDYFPEPVTVSWNSGALTSGVHTFPAVLQSSGLYSLSSVVTVPSSSLGTQTYICNVNHKPSNTKVDKKVEPKSCDKTHTCPPCPAPELLNGPSVFLFPPKPKDTLMISRTPEVTCVVVDVSDEDPEVKFNWYVDGVEVHNAKTKPREELYNSTYRVVSVLTVLHQDWLNGKEYKCKVSNKALPKPIEKTISKAKGQPREPQVYTLPPSREEMTKNQVSLTCLVKGFYPSDIAVEWESNGQPENNYKTTPPVLDSDGSFFLYSKLTVDKSRWQQGNVFSCSVMHEALHNHYTQKSLSLSP light: DIVMTQSPATLSLSPGERATLSCTSSQSVYHANWLSWFQQKPGQPPKLLIYWASTLAYGVPSRFSGSGSGTDFTLTISSLQPEDAATYYCAGGYGGGRYAFGQGTKVEIKRTVAAPSVFIFPPSDEQLKSGTASVVCLLNNFYPREAKVQWKVDNALQSGNSQESVTEQDSKDSTYSLSSTLTLSKADYEKHKVYACEVTHQGLSSPVTKSFNRGEC	1100	3000	250	13000
M103205H795-MY344 / M103202L889-SK1 (antibody, human IgG1, kappa, CH with G236N/H268D/Q295L/Q311R/A330K/D413K against SG1 (EU numbering); also called MS1032LO06-MY344) heavy: QVTLKESGPVLVKPTETLTLTCTVSGIDLSHDDISWVRQAPGKGLEWVGIISYAGSTYYASWAKGRLTISKDTSKNQVVLTMTNMDPVDTATYYCARGVPAYSHGGDLWGQGTLVTVSSASTKGPSVFPLAPSSKSTSGGTAALGCLVKDYFPEPVTVSWNSGALTSGVHTFPAVLQSSGLYSLSSVVTVPSSSLGTQTYICNVNHKPSNTKVDKKVEPKSCDKTHTCPPCPAPELLNGPSVFLFPPKPKDTLMISRTPEVTCVVVDVSDEDPEVKFNWYVDGVEVHNAKTKPREELYNSTYRVVSVLTVLHRDWLNGKEYKCKVSNKALPKPIEKTISKAKGQPREPQVYTLPPSREEMTKNQVSLTCLVKGFYPSDIAVEWESNGQPENNYKTTPPVLDSDGSFFLYSKLTVKKSRWQQGNVFSCSVMHEALHNHYTQKSLSLSP light: DIVMTQSPATLSLSPGERATLSCTSSQSVYHANWLSWFQQKPGQPPKLLIYWASTLAYGVPSRFSGSGSGTDFTLTISSLQPEDAATYYCAGGYGGGRYAFGQGTKVEIKRTVAAPSVFIFPPSDEQLKSGTASVVCLLNNFYPREAKVQWKVDNALQSGNSQESVTEQDSKDSTYSLSSTLTLSKADYEKHKVYACEVTHQGLSSPVTKSFNRGEC	1100	2200	310	19000

Now from value to binder:

Kd [1] [nM]	Kd [2] [nM]	Kd [3] [nM]	Kd [4] [nM]	Binder
1200	3600	350	11000	M103205H795-MY101 / M103202L889-SK1 (antibody, human IgG1, kappa, CH with G236N/H268E/A330K/P396M against SG1 (EU numbering); also called MS1032LO06-MY101) heavy: QVTLKESGPVLVKPTETLTLTCTVSGIDLSHDDISWVRQAPGKGLEWVGIISYAGSTYYASWAKGRLTISKDTSKNQVVLTMTNMDPVDTATYYCARGVPAYSHGGDLWGQGTLVTVSSASTKGPSVFPLAPSSKSTSGGTAALGCLVKDYFPEPVTVSWNSGALTSGVHTFPAVLQSSGLYSLSSVVTVPSSSLGTQTYICNVNHKPSNTKVDKKVEPKSCDKTHTCPPCPAPELLNGPSVFLFPPKPKDTLMISRTPEVTCVVVDVSEEDPEVKFNWYVDGVEVHNAKTKPREEQYNSTYRVVSVLTVLHQDWLNGKEYKCKVSNKALPKPIEKTISKAKGQPREPQVYTLPPSREEMTKNQVSLTCLVKGFYPSDIAVEWESNGQPENNYKTTPMVLDSDGSFFLYSKLTVDKSRWQQGNVFSCSVMHEALHNHYTQKSLSLSP light: DIVMTQSPATLSLSPGERATLSCTSSQSVYHANWLSWFQQKPGQPPKLLIYWASTLAYGVPSRFSGSGSGTDFTLTISSLQPEDAATYYCAGGYGGGRYAFGQGTKVEIKRTVAAPSVFIFPPSDEQLKSGTASVVCLLNNFYPREAKVQWKVDNALQSGNSQESVTEQDSKDSTYSLSSTLTLSKADYEKHKVYACEVTHQGLSSPVTKSFNRGEC
760	1900	350	14000	M103205H795-MY351 / M103202L889-SK1 (antibody, human IgG1, kappa, CH with G236N/H268D/Q311R/A330K/D413K against SG1 (EU numbering); also called MS1032LO06-MY351) heavy: QVTLKESGPVLVKPTETLTLTCTVSGIDLSHDDISWVRQAPGKGLEWVGIISYAGSTYYASWAKGRLTISKDTSKNQVVLTMTNMDPVDTATYYCARGVPAYSHGGDLWGQGTLVTVSSASTKGPSVFPLAPSSKSTSGGTAALGCLVKDYFPEPVTVSWNSGALTSGVHTFPAVLQSSGLYSLSSVVTVPSSSLGTQTYICNVNHKPSNTKVDKKVEPKSCDKTHTCPPCPAPELLNGPSVFLFPPKPKDTLMISRTPEVTCVVVDVSDEDPEVKFNWYVDGVEVHNAKTKPREEQYNSTYRVVSVLTVLHRDWLNGKEYKCKVSNKALPKPIEKTISKAKGQPREPQVYTLPPSREEMTKNQVSLTCLVKGFYPSDIAVEWESNGQPENNYKTTPPVLDSDGSFFLYSKLTVKKSRWQQGNVFSCSVMHEALHNHYTQKSLSLSP light: DIVMTQSPATLSLSPGERATLSCTSSQSVYHANWLSWFQQKPGQPPKLLIYWASTLAYGVPSRFSGSGSGTDFTLTISSLQPEDAATYYCAGGYGGGRYAFGQGTKVEIKRTVAAPSVFIFPPSDEQLKSGTASVVCLLNNFYPREAKVQWKVDNALQSGNSQESVTEQDSKDSTYSLSSTLTLSKADYEKHKVYACEVTHQGLSSPVTKSFNRGEC
